# From US20130005646A1 (Novo Nordisk, published 2013)
# Starred links: 1 amine or outer side, 2 acyl side, 3 side chain; linkers in the order of their positions; H or OH if unused. Positions of bridges follow the written chain, without caps; N, C: chain ends. *: point of attachment. C20 diacid = O=C(O)CCCCCCCCCCCCCCCCCCC(=O)*; 19‑carboxyheptadecanoyl = not defined here; γGlu = O=C(O)[C@H](CCC(=O)[*:2])N[*:1]; AEEA = NCCOCCOCC(=O)O
# T1: human calcitonin (a) receptor (human, UniProt P30988 25-474)
# T1 sequence (looked up): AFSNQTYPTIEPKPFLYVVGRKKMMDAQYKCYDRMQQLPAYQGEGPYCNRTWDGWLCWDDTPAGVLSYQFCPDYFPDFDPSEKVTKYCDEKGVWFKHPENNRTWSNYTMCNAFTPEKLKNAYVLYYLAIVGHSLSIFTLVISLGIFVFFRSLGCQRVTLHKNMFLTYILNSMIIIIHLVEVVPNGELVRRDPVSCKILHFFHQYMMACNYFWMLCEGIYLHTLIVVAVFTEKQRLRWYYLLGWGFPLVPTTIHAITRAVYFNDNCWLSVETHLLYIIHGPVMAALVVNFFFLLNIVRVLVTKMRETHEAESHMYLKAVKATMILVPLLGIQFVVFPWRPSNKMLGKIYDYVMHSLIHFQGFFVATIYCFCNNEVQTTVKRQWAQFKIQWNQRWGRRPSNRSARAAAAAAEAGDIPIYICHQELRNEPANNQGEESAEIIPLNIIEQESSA
# T2: human amylin 3(a) receptor (human calcitonin receptor + RAMP-3) (human, UniProt P30988 25-474; O60896 24-148)
# T2 sequence (looked up) 1: T1 sequence (looked up)
# T2 sequence (looked up) 2: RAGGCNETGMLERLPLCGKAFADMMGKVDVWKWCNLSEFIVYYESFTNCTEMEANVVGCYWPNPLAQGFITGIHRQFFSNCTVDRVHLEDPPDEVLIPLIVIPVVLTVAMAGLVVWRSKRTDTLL
# B1: N-alpha-[(S)-4-Carboxy-4-(19-carboxynonadecanoylamino)butyryl]-His-His-[His1,Glu14]-pramlintide (peptide)
# peptide: {C20 diacid-γGlu}-HHHCNTATCATQRLAEFLVHSSNNFGPILPPTNVGSNTY-NH2
# modifications: disulfide 4-9
# SMILES: CC[C@H](C)[C@H](NC(=O)[C@@H]1CCCN1C(=O)CNC(=O)[C@H](Cc1ccccc1)NC(=O)[C@H](CC(N)=O)NC(=O)[C@H](CC(N)=O)NC(=O)[C@H](CO)NC(=O)[C@H](CO)NC(=O)[C@H](Cc1c[nH]cn1)NC(=O)[C@@H](NC(=O)[C@H](CC(C)C)NC(=O)[C@H](Cc1ccccc1)NC(=O)[C@H](CCC(=O)O)NC(=O)[C@H](C)NC(=O)[C@H](CC(C)C)NC(=O)[C@H](CCCNC(=N)N)NC(=O)[C@H](CCC(N)=O)NC(=O)[C@@H](NC(=O)[C@H](C)NC(=O)[C@@H]1CSSC[C@H](NC(=O)[C@H](Cc2c[nH]cn2)NC(=O)[C@H](Cc2c[nH]cn2)NC(=O)[C@H](Cc2c[nH]cn2)NC(=O)CC[C@H](NC(=O)CCCCCCCCCCCCCCCCCCC(=O)O)C(=O)O)C(=O)N[C@@H](CC(N)=O)C(=O)N[C@@H]([C@@H](C)O)C(=O)N[C@@H](C)C(=O)N[C@@H]([C@@H](C)O)C(=O)N1)[C@@H](C)O)C(C)C)C(=O)N[C@@H](CC(C)C)C(=O)N1CCC[C@H]1C(=O)N1CCC[C@H]1C(=O)N[C@H](C(=O)N[C@@H](CC(N)=O)C(=O)N[C@H](C(=O)NCC(=O)N[C@@H](CO)C(=O)N[C@@H](CC(N)=O)C(=O)N[C@H](C(=O)N[C@@H](Cc1ccc(O)cc1)C(N)=O)[C@@H](C)O)C(C)C)[C@@H](C)O
# B2: N-alpha-[2-(2-{2-[2-(2-{2-[(S)-4-Carboxy-4-(19-carboxyheptadecanoylamino)butyrylamino]ethoxy}ethoxy)acetylamino]ethoxy}ethoxy)acetyl]-[His1,Glu14,His17,Arg18,Al … (peptide)
# peptide: {19‑carboxyheptadecanoyl-γGlu-AEEA-AEEA}-HCNTATCATQRLAEFLHRATQELGPILPPTNVGSNTY-NH2
# modifications: disulfide 2-7; reading uncertain; also: printed as N-alpha-[2-(2-{2-[2-(2-{2-[(S)-4-Carboxy-4-(19-carboxyheptadecanoylamino)butyrylamino]ethoxy}ethoxy)acetylamino]ethoxy}ethoxy)acetyl]-[His1,Glu14,His17,Arg18,Ala19,Thr20,Gln21,Glu22,Leu23]-pramlintide
# B3: N-alpha-[(S)-4-Carboxy-4-(19-carboxynonadecanoylamino)butyryl]-[His1,Gly3,Glu14,His17,Arg18,Ser21,Ser22,Glu31,Glu35]-pramlintide (peptide)
# peptide: {C20 diacid-γGlu}-HCGTATCATQRLAEFLHRSSSSFGPILPPTEVGSETY-NH2
# modifications: disulfide 2-7
# SMILES: CC[C@H](C)[C@H](NC(=O)[C@@H]1CCCN1C(=O)CNC(=O)[C@H](Cc1ccccc1)NC(=O)[C@H](CO)NC(=O)[C@H](CO)NC(=O)[C@H](CO)NC(=O)[C@H](CO)NC(=O)[C@H](CCCNC(=N)N)NC(=O)[C@H](Cc1c[nH]cn1)NC(=O)[C@H](CC(C)C)NC(=O)[C@H](Cc1ccccc1)NC(=O)[C@H](CCC(=O)O)NC(=O)[C@H](C)NC(=O)[C@H](CC(C)C)NC(=O)[C@H](CCCNC(=N)N)NC(=O)[C@H](CCC(N)=O)NC(=O)[C@@H](NC(=O)[C@H](C)NC(=O)[C@@H]1CSSC[C@H](NC(=O)[C@H](Cc2c[nH]cn2)NC(=O)CC[C@H](NC(=O)CCCCCCCCCCCCCCCCCCC(=O)O)C(=O)O)C(=O)NCC(=O)N[C@@H]([C@@H](C)O)C(=O)N[C@@H](C)C(=O)N[C@@H]([C@@H](C)O)C(=O)N1)[C@@H](C)O)C(=O)N[C@@H](CC(C)C)C(=O)N1CCC[C@H]1C(=O)N1CCC[C@H]1C(=O)N[C@H](C(=O)N[C@@H](CCC(=O)O)C(=O)N[C@H](C(=O)NCC(=O)N[C@@H](CO)C(=O)N[C@@H](CCC(=O)O)C(=O)N[C@H](C(=O)N[C@@H](Cc1ccc(O)cc1)C(N)=O)[C@@H](C)O)C(C)C)[C@@H](C)O
# Columns and labels:
# [1] = target: T1, human calcitonin (a) receptor; assay: cell-based or functional assay
# [2] = target: T2, human amylin 3(a) receptor (human …); assay: cell-based or functional assay
Binder,CTa receptor human EC50 [1] [nM],Amylin receptor human EC50 [2] [nM]
B1,0.74,0.151
B2,0.492,0.385
B3,0.198,0.313
